Entries after “also recorded” stand apart in the source; their conditions may differ. Where a SMILES comes first, the peptide text is derived from it. The star is where a group is joined. Cbz = O=C(OCc1ccccc1)*; CH2F = FC*

Series [1] relates to B16 melanoma cells. The experiment in a line: Phototoxicity of TMRM compared with mitochondrial KillerRed in B16 melanoma cells. Type of series: cell-based. To be noted: 100 nM, 3.3 W/cm2 green light. How it is done:
The phototoxicity of mitochondrial KillerRed was compared with the phototoxicity of tetramethylrhodamine (TMRM)—a red fluorescent dye capable of producing ROS which accumulates in mitochondria of living cells. B16 melanoma cells were preincubated with 100 nM TMRM for 20 min at 37° C. and irradiated by 3.3 W/cm2 green light (40× objective, 535-575 nm) for time periods of 10 sec, 1 min, 5 min, and longer. […] Irradiation for 1 min led to cell death within 30-40 min. The effect was similar to that obtained by 15-min irradiation of the KillerRed-expressing cells under the same conditions.

For series [2], the system named is B16 melanoma cells. Description: Light-induced killing of B16 melanoma cells expressing mitochondrially targeted KillerRed. It is filed as cell-based. Particulars: pre-incubated with 10 μM inhibitor, 1.5 hour post illumination. An excerpt:
Mitochondrial localization of a photosensitizer is known to be effective in photodynamic therapy, leading preferentially to apoptotic cell death. To provide for a more pronounced phototoxic effect, KillerRed was targeted to mitochondria by cloning it in frame with a double N-terminal mitochondrial localization signal and the resulting construct was transiently transfected into B16 melanoma cells. Exposure of mitochondrially targeted KillerRed expressing B16 melanoma cells to green light for 15 minutes using lower irradiation intensity (40× objective, 535-575 nm excitation filter, 3.3 W/cm2) led to nearly 100% cell death within 45 min after irradiation (FIG. 8B). If pre-incubated with 10 μM pancaspase inhibitor zVAD-fmk, the cells survived identical irradiation and preserved their native shape within 1.5 hour post illumination. This indicates the apoptotic way of the mitochondrially targeted KillerRed-mediated cell death.

For series [3], the system named is beta-gal. The experiment in a line: Inhibitory analysis with specific ROS quenchers in the in vitro beta-gal CALI system. To be noted: superoxide dismutase 500 u/ml with catalase 500 u/ml; mannitol 67 mM; sodium azide 20 mM. Type of series: biochemical, E. coli. The protocol:
White and hatched columns show β-gal activity for the intact and irradiated samples, respectively.
The mechanism of the KillerRed-mediated effect was tested using inhibitory analysis. A specific ROS quenchers were added to the in vitro beta-gal CALI system described above (FIG. 6).

Series [4] deals with E. coli (XL1-Blue strain). Description: Screening of fluorescent and chromo-proteins for phototoxic effect in E. coli (CFU after white light). Type of series: cell-based. To be noted: for phototoxic effect: E. coli expressing the protein, white light 1 hour, CFU irradiated vs non-irradiated. An excerpt: Looking for a GFP-like protein, which could be used as an efficient photosensitizer, we screened different proteins for a phototoxic effect in E. coli including: • (1) Anemonia majano fluorescent protein AmCyan (also noted to as FP486, GenBank ID AF168421; Clontech); • (2) Zoanthus sp. fluorescent protein ZsGreen FP506 (also noted to as FP506, GenBank ID AF168422; Clontech); • (3) red fluorescent protein DsRed2 (Clontech); • (4) Anemonia sulcata GFP-like chromoprotein asulCP FP595 (also noted to as FP595, GenBank ID AF246709); • (5) asulCPW94F protein, a mutant of chromoprotein FP595 comprising W94F amino acid substitution; • (6) commercially available red fluorescent protein AsRed2 (Clontech); • (7) Dendronephthya sp. green fluorescent protein dendGFP (GenBank ID AF420591); • (8) Goniopora tenuidens GFP-like chromoprotein, gtenCP (GenBank ID AF383156); • (9) aceGFP (GenBank ID AY233272); • (10) circularly permutated aceGFP (GenBank ID AY233272) variant, cpT1 having nucleotide and amino acid sequences shown in SEQ ID NOS: 5, 6.; • (11) monomeric mutant of dendGFP protein, dendQ4mono, having nucleotide and amino acid sequences shown in SEQ ID NOS: 7, 8.; • (12) EGFP, the most popular Aequorea GFP mutant variant (GenBank ID U55763); • (13) chromoprotein am2CP(PCT/RU03/00474; SEQ ID NOS: 9, 10); • (14) red fluorescent protein KillerRed (JR18IC+)(SEQ ID NOS: 3, 4), developed on the basis of chromoprotein am2CP by random mutagenesis; and • (15) non-colored mutant of FP506 protein, ZsGreenY66A, containing mutation Y66A which eliminates the chromophore, was used as a negative control.
Synthetic genes encoding proteins listed above were cloned into the pQE30 vector and transformed into E. coli (XL1-Blue strain). For each protein tested, protein expressing cells were taken from one E. coli colony, diluted into 1 ml of PBS buffer and divided into two portions. One of them was irradiated with white light (light source Fiber-Light from Dolan-Jenner Industries, Inc) for 1 hour. Then both samples aliquots were sowed to the Petri dishes at different dilutions. The number of growing colonies corresponded to the number of bacteria cells surviving after irradiation (i.e. colony forming units, CFU). The CFU number for the irradiated E. coli portion was compared to non-irradiated one, thus allowing an estimate of the relative phototoxic effect for every of the proteins tested.
Comparing to the wild type chromoprotein anm2CP, KillerRed contains amino acid changes T145N and C161A (corresponding to positions 148 and 165 in Aequorea victoria GFP), which are spatially close to the chromophore and affect fluorescent properties, and a number of folding mutations. […]

The subject of series [5] is E. coli (XL1-Blue strain). The experiment in a line: Time course of survival of E. coli expressing fluorescent proteins under white light. Type of series: cell-based. The protocol:
To compare the KillerRed phototoxic effect with the effect of DsRed2 fluorescent protein, pQE30 vectors encoding KillerRed, DsRed2 or ZsGreenY66A non-colored protein were prepared as described in Example 1. E. coli (XL1-Blue strain) were transformed with said pQE30 vectors. The cells expressing ZsGreenY66A was used as a negative control. We estimated the percent of cells surviving after bacteria irradiation for 5, 10, 20, 40 and 60 minutes. […] The graph of FIG. 2 indicates the number of colonies, which grew without irradiation and after irradiation for the corresponding period of time.

Another series relates to 293T human kidney cells. The experiment in a line: Light-induced killing of 293T cells expressing KillerRed in cytoplasm. It is filed as cell-based. An excerpt:
For expression in eukaryotic cells, the PCR-amplified Agel-NotI fragments from pQE30 vectors encoding KillerRed and DsRed2 (obtained as described in the Example 1) were PCR amplified and inserted in lieu of the EGFP-coding region in the pEGFP-N1 vector (Clontech).
293T human kidney cells were transiently cotransfected with these vectors and the AcGFP1-C1 vector (Clontech) using Lipofectamine reagent (Invitrogen). The cells of interest were characterized with high expression levels of both green fluorescent protein AcGFP1 and KillerRed (or DsRed2 in a control experiment). Cells were irradiated with intense green light for 10 min (100× objective, 535-575 nm excitation filter, 5.8 W/cm2). Mortality of irradiated KillerRed expressing cells reached 40-60%, depending on protein concentration (FIG. 8A).
At the same time, neighboring cells with a lower KillerRed expression level survived irradiation, presumably due to the lower concentration of the phototoxic agent. […] A Leica confocal inverted microscope TCS SP2 equipped with 125 mW Ar and 1 mW HeNe lasers was used for cell imaging. A LaserCheck (Coherent) power meter was used to measure total power of the excitation light after the microscope objective.

The next series relates to E. coli. Description: Action spectrum of KillerRed phototoxic effect (green vs blue light). Type of series: cell-based. An excerpt:
FIG. 3 illustrates excitation (dotted line) and emission (solid line) spectra for KillerRed protein. Hatched and white rectangles show relative phototoxic effect from irradiation with blue (460-490 nm) and green (540-580 nm) light, respectively. Numbers above the rectangles represent the decrease in the number of viable cells after 10-min irradiation (folds).
Further we roughly checked the action spectrum for KillerRed phototoxic effect (FIG. 3).

Series [6] concerns the target T1, pleckstrin homology (PH) domain of phospholipase C delta-1 (PLC delta-1) (Homo sapiens, UniProt P51178).
T1 sequence (P51178 1-224): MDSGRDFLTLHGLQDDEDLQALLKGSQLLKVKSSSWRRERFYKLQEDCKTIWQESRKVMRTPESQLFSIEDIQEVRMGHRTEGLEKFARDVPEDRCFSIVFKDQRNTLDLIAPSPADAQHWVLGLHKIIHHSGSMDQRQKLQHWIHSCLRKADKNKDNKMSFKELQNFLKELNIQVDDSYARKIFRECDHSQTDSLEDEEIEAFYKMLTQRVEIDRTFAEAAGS
Description: KillerRed-mediated CALI of PH domain in mammalian cells (membrane to cytoplasm translocation). Particulars: KillerRed expressed separately from the PH domain, in membrane or cytosol.
Description: KillerRed-mediated CALI was further tested in mammalian cells (FIG. 7). The pleckstrin homology (PH) domain of phospholipase C delta-1 (PLC delta-1) was used as a model protein. The PH domain locates to the inner leaf of plasma membrane due to its high affinity for membrane phospholipids. It has been shown that in case of direct protein inactivation by dye-generated ROS, the PH domain will lose its membrane affinity and become evenly distributed throughout the cell volume.
A coding sequence for the first 224 amino acids of PLC delta-1 comprising the N-terminal PH-domain was amplified from Fetus Brain cDNA (Clontech) with specific PCR primers. […] Primers used comprised certain restriction sites that were used for following cloning of PCR products into pEGFP-Tub plasmid (Clontech) in frame with EGFP. As a result, a PH domain fusion with EGFP and triple fusions EGFP-PH-KillerRed and EGFP-PH-DsRed-Express operatively linked with CMV promoter were obtained.
The 293T cell-derived Phoenix Eco cell line was transiently transfected with these constructs. Intracellular localization of PLC delta-1 was evaluated using EGFP signal before and after CALI of the PH domain using confocal and fluorescence microscopy. Fluorescence was monitored using a Leica Confocal Microscope DM IRE2 TCS SP2. […]

For series [7], the target named is beta-gal (Escherichia coli, UniProt P00722, DEL12-42). To be noted: beta-gal mixed with KillerRed (unfused), E. coli extracts.
Sequence of beta-gal (Escherichia coli, UniProt P00722, DEL12-42) (P00722 whole entry, stated change not applied, the tested form may be a part): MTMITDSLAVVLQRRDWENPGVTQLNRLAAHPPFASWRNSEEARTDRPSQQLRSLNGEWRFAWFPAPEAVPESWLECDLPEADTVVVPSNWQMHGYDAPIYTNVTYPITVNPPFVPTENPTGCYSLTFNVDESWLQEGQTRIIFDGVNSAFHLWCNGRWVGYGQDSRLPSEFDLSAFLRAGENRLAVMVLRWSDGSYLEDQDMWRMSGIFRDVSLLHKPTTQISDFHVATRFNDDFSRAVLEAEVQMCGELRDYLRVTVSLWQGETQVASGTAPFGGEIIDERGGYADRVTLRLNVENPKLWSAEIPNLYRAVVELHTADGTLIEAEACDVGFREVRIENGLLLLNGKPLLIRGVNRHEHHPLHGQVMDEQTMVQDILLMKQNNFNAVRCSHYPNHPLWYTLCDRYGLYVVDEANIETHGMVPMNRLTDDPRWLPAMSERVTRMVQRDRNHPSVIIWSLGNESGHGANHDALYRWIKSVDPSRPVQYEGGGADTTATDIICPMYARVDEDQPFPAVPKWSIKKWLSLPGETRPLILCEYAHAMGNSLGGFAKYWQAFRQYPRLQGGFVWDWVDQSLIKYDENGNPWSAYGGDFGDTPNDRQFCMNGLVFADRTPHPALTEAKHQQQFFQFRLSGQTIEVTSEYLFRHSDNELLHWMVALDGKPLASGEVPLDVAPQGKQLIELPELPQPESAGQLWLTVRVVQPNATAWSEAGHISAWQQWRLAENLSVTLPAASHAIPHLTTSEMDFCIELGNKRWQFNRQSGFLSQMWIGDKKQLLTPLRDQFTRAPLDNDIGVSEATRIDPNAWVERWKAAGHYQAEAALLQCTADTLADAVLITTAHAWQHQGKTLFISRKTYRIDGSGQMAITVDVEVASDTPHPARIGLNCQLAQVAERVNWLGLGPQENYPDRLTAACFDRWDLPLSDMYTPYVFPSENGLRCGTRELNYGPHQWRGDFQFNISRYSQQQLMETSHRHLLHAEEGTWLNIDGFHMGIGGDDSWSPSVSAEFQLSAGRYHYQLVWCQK
Sequence of beta-gal (Escherichia coli, UniProt P00722, DEL12-42) (P00722 with tags, fused parts or gaps DEL12-42): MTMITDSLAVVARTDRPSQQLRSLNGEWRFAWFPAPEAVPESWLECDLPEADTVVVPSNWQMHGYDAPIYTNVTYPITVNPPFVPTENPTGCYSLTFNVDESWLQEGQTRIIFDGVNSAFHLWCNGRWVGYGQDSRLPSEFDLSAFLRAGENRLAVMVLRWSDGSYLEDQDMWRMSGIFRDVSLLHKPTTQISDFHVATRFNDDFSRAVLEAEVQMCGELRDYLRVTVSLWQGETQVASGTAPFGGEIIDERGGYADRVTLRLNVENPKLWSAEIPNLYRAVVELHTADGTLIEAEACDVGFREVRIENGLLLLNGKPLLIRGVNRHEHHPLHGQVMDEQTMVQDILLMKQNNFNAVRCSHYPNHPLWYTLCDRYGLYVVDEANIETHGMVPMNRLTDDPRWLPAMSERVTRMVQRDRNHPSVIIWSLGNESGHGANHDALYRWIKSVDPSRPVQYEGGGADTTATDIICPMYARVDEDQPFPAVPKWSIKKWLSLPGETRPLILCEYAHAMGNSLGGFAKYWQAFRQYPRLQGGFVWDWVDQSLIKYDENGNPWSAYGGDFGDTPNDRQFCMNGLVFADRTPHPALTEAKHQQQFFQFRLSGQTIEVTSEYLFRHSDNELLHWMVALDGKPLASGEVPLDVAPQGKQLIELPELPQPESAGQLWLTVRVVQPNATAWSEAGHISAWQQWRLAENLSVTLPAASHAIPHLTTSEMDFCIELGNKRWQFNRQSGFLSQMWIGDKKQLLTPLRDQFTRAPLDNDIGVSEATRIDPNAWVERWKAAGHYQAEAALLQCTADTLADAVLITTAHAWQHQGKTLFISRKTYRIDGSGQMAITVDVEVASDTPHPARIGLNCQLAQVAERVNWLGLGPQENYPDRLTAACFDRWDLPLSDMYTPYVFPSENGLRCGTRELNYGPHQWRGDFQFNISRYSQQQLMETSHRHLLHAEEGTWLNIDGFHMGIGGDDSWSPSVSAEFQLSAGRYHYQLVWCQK
Description: O-nitrophenyl (ONP) absorption after 15 min o-nitrophenyl-D galactoside (ONPG) incubation is proportional to β-gal enzymatic activity.
Aliquots were either incubated under white light (1 W/cm2, light source Fiber-Light from Dolan-Jenner Industries, Inc) or kept in the dark. The entire volume of the tube was illuminated. Beta-gal activity was assayed in light-illuminated and “dark” aliquots calorimetrically.

For `CN(C)c1ccc2c(-c3ccccc3C(=O)[O-])c3ccc(N(C)C)cc3[o+]c2c1` [TMRM, tetramethylrhodamine], the cell death result was “didn't lead to TMRM-loaded cells' death” with B16 melanoma cells [1] (irradiation for 10 sec, within 1.5 h interval) and “immediate cell death” in the series with B16 melanoma cells [1] (irradiation for 5 minutes or longer). Moreover, the “time to cell death” value in the series on B16 melanoma cells [1] (irradiation for 1 min) is 30 to 40 min.

As for `COC(=O)C[C@H](NC(=O)[C@H](C)NC(=O)[C@@H](NC(=O)OCc1ccccc1)C(C)C)C(=O)CF` [zVAD-fmk] (Cbz-Val-Ala-Asp(OMe)-CH2F), the “cell survival after identical irradiation” value with B16 melanoma cells [2] is “survived”.

superoxide dismutase: the “effect of quencher on CALI of beta-gal” value with beta-gal [3] was “impeded CALI slightly”.

B1: S3-2 (protein)
chain: EGGPALFQSDMTFKIFIDGVVNGQKFTIVADGSSKFPHGDFNVHAVCETGKLPMSWKPICHLIQYGEPFFARYPNGISHFAQECFPEGLSIDRTVRFENDGTMTSHHTYELDGTCVVSRITVNCDGFQPDGPIMRDQLVDILPNETHMFPHGPNAVRQLAFIGFTTADGGLMMSHFDSKMTFNGSRAIKIPGPHFVTTITKQMKDTSDKRDHVCQREVTYAHSVPRITSAI
modifications: amino acid sequence for the red fluorescent protein S3-2
With B1, the phototoxic effect result in series [4] was “phototoxic”.

B2: anm2CP: wild type Anthomedusae chromoprotein (SEQ ID NOs: 9 and 10) (protein)
chain: MEGGPALFQSDMTFKIFIDGVVNDQKFTIIADGSSKFPHGDFNVHAVCETGKLPMSWKPICHLIQYGEPFFAKYPNGISHFAQECFPEGLTIDRTVRFENDGTMTSHHTYELDGTCVISRITVNCDGFQPDGPIMKDQLVDILPTETHMFPHGSNAVRQLCYIGFTTADGGLMMSHFDSKLTFNGSRAIKIPGPHFVTVIIKQMKDTSDKRDHVCQREVTYAHSVPRITSAI
modifications: hydromedusa 2 from sub-order Anthomedusae
As for B2, the phototoxic effect result in series [4] is given as “not phototoxic”.

B3: KillerRed: red fluorescent protein (SEQ ID NO: 4), developed from chromoprotein anm2CP by random mutagenesis; genetically encoded photosensitizer (protein)
chain: EGGPALFQSDMTFKIFIDGEVNGQKFTIVADGSSKFPHGDFNVHAVCETGKLPMSWKPICHLIQYGEPFFARYPNGISHFAQECFPEGLSIDRTVRFENDGTMTSHHTYELDDTCVVSRITVNCDGFQPDGPIMRDQLVDILPNETHMFPHGPDAVRQLAFIGFTTADGGLMMGHFDSKMTFNGSRAIEIPGPHFVTIITKQMRDTSDKRDHVCQREVAYAHSVPRITSAIGSDED
modifications: amino acid sequence for the red fluorescent protein JR18IC+
notes: genetically encoded photosensitizer
Turning to B3, in series [4], the phototoxic effect result was “striking phototoxic effect; also recorded: most strongly expressed”. Besides, in [4] (after 1 hour irradiation with white light), the bacteria killed is reported as 99.95%. Besides, the figures for the cells killed in series [5] (after 10 minutes of irradiation with white light) and in series [5] (after 20 minutes of irradiation with white light) were 96% and about 100%, respectively. In addition, the “Mortality of irradiated cells” value in the series with 293T human kidney cells (green light 10 min, 535-575 nm, 5.8 W/cm2, depending on protein concentration) is on record as 40-60%. The “fate of irradiated cell” value with 293T human kidney cells (highly expressing cell, post irradiation with green light 10 min) is “disintegrated within an hour and a half”. Besides, the cell killing effect entry with E. coli (blue light irradiation (FITC filter set)) was “weak effect”; in the series with E. coli (green light irradiation (TRITC filter set)) it was “strong cell killing effect”. The “CALI of the PH domain” value in [6] is given as “no detectable CALI”. Besides, the “effect of irradiation on enzyme activity” value with beta-gal [7] is listed as “no effect”.

Values taken from US20080153161A1, “Genetically Encoded Photosensitizers and Methods for Using Same” (priority 2005, published 2008).
